According to PMC5546038, “Engineering the fragment crystallizable (Fc) region of human IgG1 multimers and monomers to fine-tune interactions with sialic acid-dependent receptors” (The Journal of Biological Chemistry, 2017):

T1: hexa-Fc N297A/N563A (human)
T1 chain: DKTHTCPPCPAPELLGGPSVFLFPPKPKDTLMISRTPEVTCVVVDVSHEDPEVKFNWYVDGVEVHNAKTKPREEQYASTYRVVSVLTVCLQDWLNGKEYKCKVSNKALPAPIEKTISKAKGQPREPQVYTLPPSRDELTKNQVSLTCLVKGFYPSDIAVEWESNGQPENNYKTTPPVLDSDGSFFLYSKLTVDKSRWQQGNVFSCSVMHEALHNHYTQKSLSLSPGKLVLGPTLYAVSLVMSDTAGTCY


What was measured:
[1] = biological target: T1, hexa-Fc N297A/N563A; assay: SEC + other: non-reducing SDS-PAGE; molecular mass ∼650–700 kDa; SEC shown for N563A (supplemental Fig. S2); sizes counted in Fc units of two chains; settings: both partners purified
[2] = biological target: the molecule itself; assay: as above

stoichiometry N [1] | Binder | stoichiometry N [2]
~12 | hexa-Fc N297A/N563A (other, no N-glycans; multimer, approximately dodecamers of Fc / no N-glycans; multimer, approximately dodecamers of Fc) DKTHTCPPCPAPELLGGPSVFLFPPKPKDTLMISRTPEVTCVVVDVSHEDPEVKFNWYVDGVEVHNAKTKPREEQYASTYRVVSVLTVCLQDWLNGKEYKCKVSNKALPAPIEKTISKAKGQPREPQVYTLPPSRDELTKNQVSLTCLVKGFYPSDIAVEWESNGQPENNYKTTPPVLDSDGSFFLYSKLTVDKSRWQQGNVFSCSVMHEALHNHYTQKSLSLSPGKLVLGPTLYAVSLVMSDTAGTCY | –
– | hexa-Fc D221N/N297A/N563A (other, N-linked glycan at Asn-221) NKTHTCPPCPAPELLGGPSVFLFPPKPKDTLMISRTPEVTCVVVDVSHEDPEVKFNWYVDGVEVHNAKTKPREEQYASTYRVVSVLTVCLQDWLNGKEYKCKVSNKALPAPIEKTISKAKGQPREPQVYTLPPSRDELTKNQVSLTCLVKGFYPSDIAVEWESNGQPENNYKTTPPVLDSDGSFFLYSKLTVDKSRWQQGNVFSCSVMHEALHNHYTQKSLSLSPGKLVLGPTLYAVSLVMSDTAGTCY | ~12
